These results are taken from patent US20160083449A1 (FRED HUTCHINSON CANCER RESEARCH CENTER, published 2016).

Assay [1] addresses T1, WT-1^126-134 peptide/MHC tetramer (…, SEQ ID NO.:16, with HLA-A2), PE-conjugated (human).
T1 construct: Tetramer reagent used for staining of T cells; the source and the construct of the HLA-A2 monomers are not described; also called WT1 tetramers; WT-1 tetramer
As to the kind of experiment: flow cytometry of transduced PBMCs; share of tetramer-positive cells within the transduced population (Vβ+ cells minus the endogenous Vβ+ cells of the untransduced control); drawn table.

Assay [2] deals with T2, Wilms tumor protein 1 (WT-1) peptide on HLA-A*02:01 (human).
T2 peptide: RMFPNAPYL
As to the kind of experiment: Kd or kinetics.

B1: TCRP20, WT-1^126-134-specific TCR of T cell clone P20 (TCR, V domains shown)
V domain 1: QKEVEQNSGPLSVPEGAIASLNCTYSDRGSQSFFWYRQYSGKSPELIMSIYSNGDKEDGRFTAQLNKASQYVSLLIRDSQPSDSATYLCAVLEGQKLLFARGTMLKVDL
V domain 2: DVKVTQSSRYLVKRTGEKVFLECVQDMDHENMFWYRQDPGLGLRLIYFSYDVKMKEKGDIPEGYSVSREKKERFSLILESASTNQTSMYLCATSHQPQHFGDGTRLSILE
modifications: Engineered cysteine pair (alpha T179C, beta S185C, precursor numbering) gives an extra interchain disulfide.
notes: On the T cell clone
On to B1, for which the “% transduced Vβ+ tet+” value in assay [1] was found to be 51.2%.

B2: P20 TCR (TCRP20) (TCR, V domains shown)
Valpha: B1 V domain 1
Vbeta: DVKVTQSSRYLVKRTGEKVFLECVQDMDHENMFWYRQDPGLGLRLIYFSYDVKMKEKGDIPEGYSVSREKKERFSLILESASTNQTSMYLCATSHQPQHFGDGTRLSIL
Regarding B2, the binding result in assay [2] is on record as “recognises”.

B3: P1 TCR (TCRP1) (TCR, V domains shown)
Valpha: AQKVTQAQTEISVVEKEDVTLDCVYETRDTTYYLFWYKQPPSGELVFLIRRNSFDEQNEISGRYSWNFQKSTSSFNFTITASQVVDSAVYFCALSEAHRDSNYQLIWGAGTKLIIKP
Vbeta: ETGVTQTPRHLVMGMTNKKSLKCEQHLGHNAMYWYKQSAKKPLELMFVYNFKEQTENNSVPSRFSPECPNSSHLFLHLHTLQPEDSALYLCASSQDEQFLYNEQFFGPGTRLTVL
For the molecule B3, in assay [2], the binding result is “recognises”.
